This is an account of results in patent US8524947B2, “Acylsulfonamides and processes for producing the same” (University of South Florida, priority 2008, dated 2013).

Assay [1] has as its target T1, Bcl-XL (Homo sapiens, UniProt Q07817). As to the kind of experiment: Suppression of Bcl-XL-templated incubations of (SZ4) and (TA2) by BH3 peptides (LC/MS-SIM). The following applies: for amount of acylsulfonamide (SZ4TA2) in Bcl-XL incubations containing the peptide: compared to the Bcl-XL incubations containing wild type Bak BH3 and Bim peptides. The assay is classed as biochemical. The protocol: In a 96-well plate, one thio acid building block (1 μL of a 2 mM solution in methanol) and one sulfonyl azide building block (1 μL of a 2 mM solution in methanol) were added to a solution of Bcl-XL (98 μL of a 2 μM Bcl-XL solution in buffer (58 mM Na2HPO4, 17 mM NaH2PO4, 68 mM NaCl, 1 mM NaN3, pH=7.40)). The 96-well plate was sealed and incubated at 38.5° C. for six hours. The incubation samples were then subjected to liquid chromatography combined with mass spectrometry analysis in the selected ion mode (LC-MS-SIM, Zorbax SB-C18 preceded by a Phenomenex C18 guard column, electrospray ionization and mass spectroscopic detection in the positive selected ion mode, tuned to the expected molecular mass of the product). The TGS hit compound was identified by the mass and retention time. As a control, identical building block combinations were incubated in buffer without Bcl-XL and subjected to LC/MS-SIM analysis. Comparison of the LC-MS-SIM chromatograms of these control incubations with the chromatograms of the Bcl-XL containing incubations allows to determine whether the protein is templating the corresponding amidation reactions or not. For the Bcl-XL containing incubation sample showing acylsulfonamide formation, a second control has been undertaken. Synthetically prepared acylsulfonamide was subjected to LC/MS-SIM analysis and the retention time was compared with the retention time identified in the Bcl-XL containing incubation.
Additional control experiments have been performed to test whether the Bcl-XL-templated reaction occurs at the BH3 binding site on Bcl-XL. Reactive building blocks (SZ4) and (TA2) were incubated with Bcl-XL and pro-apoptotic Bak BH3 peptide. Bak is one of the natural Bcl-XL ligands and theoretically competes with the reactive building blocks for binding on Bcl-XL during the incubations. The influence of Bak BH3 peptide on the Bcl-XL-templated reaction was studied at different ratios of Bak BH3 peptide and Bcl-XL (FIG. 10).
Additional control experiments have been performed with Bim, mutant Bim, and mutant Bak. […]

Assay [2] deals with T1, Bcl-XL. The following applies: compared to wildtype Bak BH3 and Bim peptides; cited from earlier work.

T1 sequence (Q07817 whole entry): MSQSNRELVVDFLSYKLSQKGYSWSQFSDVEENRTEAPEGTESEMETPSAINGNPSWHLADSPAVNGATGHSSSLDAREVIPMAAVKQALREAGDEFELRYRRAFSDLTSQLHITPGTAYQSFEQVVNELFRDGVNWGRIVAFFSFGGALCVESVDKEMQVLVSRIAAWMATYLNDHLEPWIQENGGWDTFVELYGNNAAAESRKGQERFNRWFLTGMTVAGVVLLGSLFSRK

Turning to “Bak BH3 peptide: pro-apoptotic Bak BH3 peptide, a natural Bcl-XL ligand; sequence CMGQVGRQLAIIGDDINRRYDS”, in the assay with Bcl-XL [1] (20 μM Bak BH3 peptide, (SZ4) and (TA2) with Bcl-XL, compared to the Bcl-XL incubation without Bak BH3), the “Bcl-XL-templated reaction (formation of SZ4TA2)” value is “significantly suppressed”.
As to “mutant Bak: mutant Bak BH3 peptide; sequence CMGQVGRQAAIIGADINRRYDS”, the “amount of acylsulfonamide (SZ4TA2) in Bcl-XL incubations containing the peptide” value in the assay with Bcl-XL [1] is given as “increased amount”. The “affinity towards Bcl-XL” value with Bcl-XL [2] is given as “lower affinity”.
With “mutant Bim: mutant Bim BH3 peptide; sequence CEIWIAQEARRIGAEFNAYYAR”, in the assay with Bcl-XL [1], the “amount of acylsulfonamide (SZ4TA2) in Bcl-XL incubations containing the peptide” value is “increased amount”. The “affinity towards Bcl-XL” value in the assay with Bcl-XL [2] is “lower affinity”.
